The source of these data is PMC5484684, “Intracellular targeting of annexin A2 inhibits tumor cell adhesion, migration, and in vivo grafting” (Scientific Reports, 2017).

In assay [1] the target is T1, human recombinant annexin A2 (human, UniProt P07355 1-339).
T1 construct: annexin A2, human, recombinant; also called ANXA2; source: bought: Amprox
Put plainly: phage binding assay; recombinant proteins in 96-well plates; iPhage input 10^9 TU/well; bound phage particles quantified by bacterial infection; TU normalised on an insertless iPhage. Conditions: both partners purified.

Assay [2] deals with T2, GST-fused recombinant annexin A2 (human, UniProt P07355 1-339).
T2 construct: May be the same protein as the annexin A2 bought from Amprox
T2 sequence (P07355 whole entry, the tested form may be a part): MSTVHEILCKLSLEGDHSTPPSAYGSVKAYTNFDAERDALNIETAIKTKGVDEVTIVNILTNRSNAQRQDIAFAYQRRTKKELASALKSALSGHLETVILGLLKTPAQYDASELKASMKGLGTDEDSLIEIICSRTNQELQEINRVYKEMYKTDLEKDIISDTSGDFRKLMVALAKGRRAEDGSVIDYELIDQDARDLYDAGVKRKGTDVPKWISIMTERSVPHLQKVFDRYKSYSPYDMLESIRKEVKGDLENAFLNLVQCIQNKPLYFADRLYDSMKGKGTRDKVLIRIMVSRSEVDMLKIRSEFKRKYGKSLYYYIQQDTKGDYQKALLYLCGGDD
The description is as above. Conditions: both partners purified.

Ends that are not written are not given here.

T1 sequence (P07355 whole entry): as the sequence (P07355 whole entry, the tested form may be a part) above

B1: LGRFYAASG-displaying iPhage (peptide)
peptide: LGRFYAASG
modifications: also: phage-displayed
notes: peptide selected from the X4YX4 iPhage random peptide library in KS1767 cells; the alanine variants were cloned into the fUSE5 vector; source: recovered and amplified by E. coli infection, and purified
In the case of B1, the binding result in assay [1] and in assay [2] was “binds” each time.
